Results: patent US7132248 (dated 2006)

T1: rat GALR2 (rat)
T1 chain: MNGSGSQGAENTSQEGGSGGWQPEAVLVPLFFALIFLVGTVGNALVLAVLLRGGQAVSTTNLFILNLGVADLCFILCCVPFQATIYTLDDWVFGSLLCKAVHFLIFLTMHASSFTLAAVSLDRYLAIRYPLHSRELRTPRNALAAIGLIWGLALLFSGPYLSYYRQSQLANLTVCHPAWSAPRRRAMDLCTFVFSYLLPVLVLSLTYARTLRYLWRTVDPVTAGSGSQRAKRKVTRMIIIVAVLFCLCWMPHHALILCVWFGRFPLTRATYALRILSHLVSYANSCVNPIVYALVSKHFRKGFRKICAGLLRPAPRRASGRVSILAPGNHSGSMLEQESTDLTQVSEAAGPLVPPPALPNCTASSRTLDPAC

T2: human GALR2 (human)
T2 chain: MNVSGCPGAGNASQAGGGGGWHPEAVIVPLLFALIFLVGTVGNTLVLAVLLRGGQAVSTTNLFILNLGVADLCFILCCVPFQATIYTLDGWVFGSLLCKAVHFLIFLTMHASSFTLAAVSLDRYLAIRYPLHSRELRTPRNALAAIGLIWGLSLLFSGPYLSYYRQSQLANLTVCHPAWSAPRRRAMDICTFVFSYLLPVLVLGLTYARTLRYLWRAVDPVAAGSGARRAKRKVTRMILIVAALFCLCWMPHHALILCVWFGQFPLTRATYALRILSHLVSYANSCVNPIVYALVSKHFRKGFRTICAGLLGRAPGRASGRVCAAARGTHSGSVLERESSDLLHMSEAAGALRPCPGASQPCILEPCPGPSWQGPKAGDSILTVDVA

T3: rat GALR1 (rat, UniProt Q62805)
T3 chain: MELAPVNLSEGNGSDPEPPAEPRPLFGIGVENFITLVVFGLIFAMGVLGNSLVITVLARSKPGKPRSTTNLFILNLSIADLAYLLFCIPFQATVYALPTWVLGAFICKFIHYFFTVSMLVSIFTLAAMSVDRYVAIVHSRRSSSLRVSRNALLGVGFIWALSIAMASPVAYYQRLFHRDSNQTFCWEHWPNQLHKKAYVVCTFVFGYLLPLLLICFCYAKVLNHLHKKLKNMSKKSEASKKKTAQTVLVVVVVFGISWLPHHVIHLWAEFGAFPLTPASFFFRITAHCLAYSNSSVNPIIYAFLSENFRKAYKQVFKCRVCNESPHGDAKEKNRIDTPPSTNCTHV


What was measured:
rat GALR2 [1] = molecular target: T1, rat GALR2; assay: competition, radioligand CHO
human GALR2 = molecular target: T2, human GALR2; assay: competition, radioligand COS-7
rat GALR2 [2] = molecular target: T1, rat GALR2; assay: competition, radioligand COS-7
rat GALR2 [3] = molecular target: T1, rat GALR2; assay: competition, radioligand COS-7
rat GALR1 = molecular target: T3, rat GALR1; assay: competition, radioligand COS-7

Binder | Ki (rat GALR2 [1]) | Ki (human GALR2) | also measured
LASLLLASALSATLGLGSPVK [porcine galanin 9-29] | > 1000 nM | – | –
RGCALLLASLLLASALSATLGLGSPVK [porcine galanin (3-29)] | – | – | Ki (rat GALR2 [3]): > 100000 nM
MPRGCALLLASLLLAS [galanin (1-16)] | – | 15 nM | Ki (rat GALR2 [3]): 1.74 nM
human galanin (protein) KRGWTLNSAGYLLGPHAVGNHRSFSDKNGLTSKRELRPEDDMKPGSFDRSIPENNIMRTIIEFLSFLHLKEAGALDRLLDLPAAASSEDIERS | 1.2 nM | – | –
MPRGCALLLASLLLASALSATLGLGSPVK [porcine galanin (1-29)] | – | 0.72 nM | Ki (rat GALR1): 0.457 nM

Further lines, with some results ahead:

Ki (rat GALR2 [1]) | Ki (human GALR2) | Binder | also measured
> 1000 nM | – | MPRGCALLL [porcine galanin 1-9] | –
– | 1 nM | MARGSVILLAWLLLVATLSATLGLGMPTK [rat galanin] | Ki (rat GALR2 [2]): 0.52 nM
> 1000 nM | – | ALSATLGLGSPVK [porcine galanin 17-29] | –
